Measurements from article PMC6643034.

Biological target: CXCL8 (human)

B1: Evasin 3 (EVA3) (natural protein)
chain: DGGLVSTIESRTSGDGADNFDVVSCNKNCTSGQNECPEGCFCGLLGQNKKGHCYKIIGNLSGEPPVVRR
modifications: also: glycosylated
neutralization of human CXCL8-induced granulocyte migration (Transwell, EC80 dose of CXCL8, EVA3 0.02–100 nM); mean IC50 of four biological replicates: 1.94e-09 M
